Measured values: a protein production outcome set (Wang et al. 2014)

experiment: label from the status in PepcDB records
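Also: failed if final PepcDB status was selected cloned or expressed and not failed if soluble or beyond.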

Sequence	protein production
MKQAIGFIDSGVGGLTVVREVLKQLPHEQVYYLGDTARCPYGPRDKEEVAKFTWEMTNFLVDRGIKMLVIACNTATAAALYDIREKLDIPVIGVIQPGSRAALKATRNNKIGVLGTLGTVESMAYPTALKGLNRRVEVDSLACPKFVSVVESGEYKSAIAKKVVAESLLPLKSTKIDTVILGCTHYPLLKPIIENFMGDGVAVINSGEETASEVSALLDYHNLLDATDEEIEHRFFTTGSTQIFKDIAKDWLNMPDMTVEHIKLGK	not failed
MKQFVVISGKGGTGKTSVTAGLAAVGKDMVLADCDVDAADLHLVLAPEIRERHDFISGVVASIEPEACISCGLCTTHCRYGAIPQGYAPQVAPEHCEGCGVCAHVCPTGAARLSDRRCGEWYVSDTRFGPMVHAALGIGEENSGKLVSTVRTRARELAEARDASVVLIDGSPGVGCPVIASLAGADAALAVTEPTVSALHDLERVHALARHFDVRMAVLLNKADIHPGMAERIIGYCTTHDLPLVGRFGFSPLFVQAQLEGRTLPEQDSGEWRQRFNGVWNQLLALVLEHHHHHH	failed
MKQKDFFLYAVMSVFLGMQGCASSSDIKQNVGTSEIAHTKQTLQIAGLKHCNNEGNDSIHLNPDEPLTIIVHGCFSSAGRFETLADVYGLYDQQAICFEYDDRKSLEDTSGELVAALNQLSTQNPNQDLHVIGHSQGGLVARRALTSEREDQQTVTAKKVQLTTVSSPFNGIEISSHCGITPLRILSLGIVDLICYAVTGEKYQQIPPNADFIEQPGDLVASVSQHLVIKTDERNSCRKENDKGECIEDDYVFSVNEQSNNQVDDGVNTDLVTVKAGHVEIVGNGESVPTDLINILKQKEVLVDKSGVDEQKQGYLINQLYFD	failed
MKQPFERILREICFMVKVEGRKVLRDFGITPAQFDILQKIYFEGPKRPGELSVLLGVAKSTVTGLVKRLEADGYLTRTPDPADRRAYFLVITRKGEEVIEKVIERRENFIEKITSDLGKEKSSKILDYLKELKGVMERNFSKQ	not failed
MKQQLESFIETTKPSALVADMFFPWATESAEKLGVPRLVFHGTSFFSLCCSYNMRIHKPHKKVATSSTPFVIPGLPGDIVITEDQANVAKEETPMGKFMKEVRESETNSFGVLVNSFYELESAYADFYRSFVAKRAWHIGPLSLSNRELGEKARRGKKANIDEQECLKWLDSKTPGSVVYLSFGSGTNFTNDQLLEIAFGLEGSGQSFIWVVRKNENQGDNEEWLPEGFKERTTGKGLIIPGWAPQVLILDHKAIGGFVTHCGWNSAIEGIAAGLPMVTWPMGAEQFYNEKLLTKVLRIGVNVGATELVKKGKLISRAQVEKAVREVIGGEKAEERRLWAKKLGEMAKAAVEEGGSSYNDVNKFMEELNGRK	failed
MKQRTLPAAFLLALSIASLAGCASPTVITLNDGREIQAVDTPKYDEDSGFYEFKQLDGKQTRINKDQVRTVKDLLEHHHHHH	failed
MKQTPPLISFITICYNGLDDTCMLIESLRDTISSVSYEIIVVDNASRQDEASLIQERYPFVRTLRSEKNLGFSGGNNLGIQIAQGKYLFLINNDTYLTEDGLPALIERLESDPRIGAVSPKIRFAFPPQSIQFAGYTKLSRYTMRNKALGMGCPDDGTFDTPRPSAYLHGAALMLKREVIWKAGLMPEIYFLYYEELDWCTSMTRAGYQLWYEPRCTIFHKESQSTGRQSPLRTFYMMRNRMLYAWRNLPGMERCLAIAYQMLIVAPKDSLCFVLKGEPKLAKAVWHGVKGFWKLCLEHHHHHH	not failed
MKRADFCIIGLGRFGMQVAHSLKENNFTLVLIDNDQHKTNTAAQEFDHVVCCDGSNLTALAELQLEEFSAVIVGVTNIEASIMICANLRELGQKNIIARAKNEVHNRVLRTMGIREALIPEKIVGKNLVIRLIHGMETEIINLGNDILFVRAPVNNKKLFNRTLGEINIREHTNANLISIMRNGKDVVFPLGPNTQIQPGDVITAVCQLSGVNQYLRYINPNDKNKYKASE	failed
MKRAFAAVAATVCLFLLVQLGSLALVEPFMSAGFQAVEDPSDPTNSLLYIIAILVATGVMLAAMKFGVDRLLQGLVLFAAVFISFYVFTVVVPPVVAVAGLNLVAVALALALGVGLLVYPEWYVIDAAGIVMGAGAAGLFGISFGLLPALVLLVVLAVYDAISVYGTEHMLALASGAMDLRLPVIFVVPLTLSYSFLDADNPESLEDDTPESDAEAEPDEGDDVSTATGDAEPVDTMAEDADTDADSDADADDPAAAEAAPDEHADPFARDAFFIGLGDAVIPTILVASAAFFRPGGVELLSVPGIALTVPALGAMVGTIAGLLALMWFVMKGRAHAGLPLLNGGAIAGYLLGAAAVGIPVVEALGVAPYL	failed
MKRANIVKLIVDKKTHEKLKELAIATAKCWNEVNWLRMQQFKKGERVDFSKTEKDVYEKYKQILKVNTQQVARKNAEDWRSFFSLIEEKKEGKLPRWFKPRPPGYWKDKIGKYKLIIIIRKDRYEVNEEKRIIYLKDFKLSLSFKGKLKWHGEQGRLEIIYNEARRIWYAHIPVEVQNDVKAEGKLKASIDLGIVNLATVYVEDGSWYIFKGGSVLSQYEYYSKRISIVQKTLARHKQRRSRKMKLLYEKRKRFLKHALNSMVRKIMEELKKKGVSKLIIGYPKEISKDHGNKLTVNFWNYGYIIRRFEEVGEELGIEVVEVDEAWTSKSCSLCGEAHHRGRIKRGLYRCPRMGKVINADLNGAINILHIPESLGAGSGGQLPVRDRGNGLKAQPAVYRWSNGVGWVSSPTSYEVMKMKAVNRKPMNRPKGTLAL	failed
MKRDRNLTWHRTDALRPNLEGRQVAVIGGTGGIGRALSRHLASLDARVVVVGQTFRDADVPGIRFIQADLSLMHEAQRVAGLLPAQTLDLVIFTTGIFAAPQRQETTEGIERDLAVSYLNRLVMLRAIAPTLGTQRARPAMKPRVFIMGYPGSGQTGAPDDLNAEAPYKAMAAHMNTVAGNEMLVLDAALRYPQATFFGLNPGLIKTGIRDNFFGKGSVKSRIAETLIGWLTPTADTYAQRITPLLMSPDLEGHSGAMFNSKGQAILPSPGLGEAHIRKFMAASEALANRTGIHPIGQEDRP	failed
MKREIQVSVFLTFITLAYYLLNSLALEFLGLGFISIPLTILLPASILFERERPNPISRVTYIFSMLWLVFLIYLLTGWALVQFIWFFLDLPCLKILAVSLAALSVSYGVFRARKIEVKRVEIPFPVEESLRFVQLSDIHLGTVRSAGFLKEVSEAVRRVEAAAVLITGDLLDGSRPVDSSIISSLETGAPIFFVSGNHDTYSGDFRSTVSDAGIMCIDQSVIEFEGIQIIGVGYSMERHSLPAILDLLEFDEDRPVLLLHHLPVDWEDARERGVDLQLSGHTHGGQFYPFNIIVGLMFPFLRGLYSDSGGFLYVSEGTGTWGPPVRLGSSCEITVIDLVPFKEI	failed
MKRERSDFEESLKNIDIAKCLMILAQTSMVKQIGLNQHTESHTSNQFECKTCNKRFSSFQALGGHRASHKKPKLTVEQKDVKHLSNDYKGNHFHKCSICSQSFGTGQALGGHMRRHRSSMTVEPSFISPMIPSMPVLKRCGSSKRILSLDLNLTPLENDLEYIFGKTFVPKIDMKFVL	failed
MKRFIIKSDRIGFSIWEETDLKEALELWGNSNVTKYITADGKMSIEDVKTRLKVEIEFYEKYKVQYWPIFLNETSENLGVCGLHPYNIKDSVFELGVHLREKYWGIGVAEKACNLVMRYAFENLQAKAIFVGHNPNNKASKKLIKKLGFTYTHDEFYEPTGLYHPSYLITCNEFIEVKNKLKGGKIIGKNK	not failed
MKRFVLFLLFMCVCVQAYAEQDYFFRDFKSRDLPQKLHLDKKLSQTIQPCMQLNASKHYTSTGVREPDKCTKSFKKSALMSYDLALGYLVSKNKQYGLKAIEILNAWAKELQSVDTYQSEDNINFYMPYMNMAYWFVKKAFPSPEYEDFIKRMRQYSQSALNTNHGAWGILFDVSSALALDDNALLHNSANRWQEWVFKAIDENGVIASAITRSDTSDYHGGPTKGIKGIAYTNFALLALTISGELLFENGYDLWGSGAGKRLSVAYNKVATWILNPETFPYFQPNLIGVHNNAYFIILAKHYSSPSANELLKQGDLHEDGFRLKLRSP	failed
MKRGNEENNHKTSSSSSTQRLSRRKISAGEKSGNVNIPLDLTVEILKKLPAKSLLRFQCVSKQWLSIISSRRDFIDSIVTRSLTQPPPRDIKLIFHHQVLYPGPHFFIFSSTYPQNTDKESLTTRASSYHYVRGLICCWSHCPTTVDIYNPTTRQYYTVPDTNRYQYIETCFFGYDPVENQYKVMVLPKYYMEESPCQVFTVGDPIEKPWRDIQGIGVHFLLKDAVCINGVIYYQATNEYGSTYFLVSFDVRSEKFNHVKAPKILTDHPCTLINYQGKLGLIMCCKKGLEIWVMEDAEKKQD	failed
MKRIFKGHSPWGFLSFRHAENQEPPRYLTGYTPVKRIHKAASMGDIPQVQKLLEFGNIDVNITDRKKRTALHYACAHGQSEMVSLLLWYDCNIEARDREESTALIKATQRQHEICVKILLENGADPNAVDAYHITALHYAVYNNDTAIAAKLLSFNANTEIKTKNGYTPLILAVLENKQEMVELLLRAAANINALDNCKRSALIHAVRIQSKNMISLLLQQGADPSLVDIYGATAQSYAVFETFQVLSQSPGPSCPELTTKEDKQSFDTKDGCIPHSHHIKEDNQEMEENTDDKLGSPAALKHKEKELENCEECNSEADTYPESYSKTSSAQRRSNSEPTEVDDEPSFSTKPPVAQSPMFTESSLWVGYPADWPEPVKFSRQPAVYNPTEWREDMESRSVPREESKQQVAIFPEGKEADVQTQELLSRVFKESGDNDPNLPAIENTKDELVSLLAPLEENKPQMTEFPLIEAAKFQTDVQLDRCPCFLLSLRNSLSGTLD	failed
MKRIKLVRHGESAANAGQASRNHESIPLTHRGLEQAITVARSFTKAPELIVASPFSRAQATAQETSAIFPTVAIETWPIQEFTYLAPARCVDTTVAQRRDWVDAYWARAEPAFCDGEGAESFLDFVYRAQAFLKQLAGHSAANTVVFSHGQFLNAVAWLLERRPQSLDRHAMADWRRYEIENHIPNGCGFYLSQSSTGAEWVLGHRNY	failed
MKRILVSLYEKEKYLDILRELHEKGWEIWASSGTAKFLKSNGIEANDVSTITGFENLLGGLVKTLHPEIFAGILGPEPRWDVVFVDLYPPPDIDIGGVALLRAAAKNWKKVKPAFDMETLKLAIEIDDEETRKYLAGMTFAFTSVYDSIRANQFVEGISLAFKREDLQLRYGENPHEKAFVYGKPAFEILHEGKTISFNNILDAENAWFMAKNLPRMGAVVVKHQSPCGAAIGEDKVEIVKKAIEADDESSFGGILAVNFEMDEEVAKSLKKYLEVIVAPSFTQEAIEVLSKKKVRLLKPGDYASWAGKMAFGSLVLSERKYPEGNFELVVGEPLSEKELEDLEFAYRVVEGAKSNAVLIAKDGVTVGIGSGQPSRKRAAWIATVMAGEKAKGAVAASDAFFPFPDSLEILAQAGVKAVVAPLGSIRDEEVIEKARELGITFYKAPSRVFRH	not failed
MKRKAVNFHPQVDMSIGDKYLLKEFIDEGSFGYVWKAVNLENRQTVALKIPKDQERGDNTLSEGKEFIGSHHPNVISIYWMGRVDGVFLIEMEYFNGHKLSDELCETGFKSPRTFEEIYNLFFQILDGVEYIHSKHICHGDIKPQNILIDGKIAKITDFGTSKLIEDLFIKTIDGGGTWAYMAPEVAGSNRRYLNSDIYSLGVLLYKFLTGRTPHETANQLINNIPYPKPREINNNIPESVERIIMKLLKRNPDERYQNISEIKRDLEEALRSEDRNIISYNERAEVKYEDTDWIERVIRYYKNNEFDKAELLLKTEYENGNKSADVLYHIAYTYFQQGRYFESMDVIKDIDITQVEDIRQEALEDNLLYLKGKLFFELKKYEEAVKVYEKLVSRNPDDLNYRYKLACAYGLNDEQEKSIEILEDINKKTPGMLYIVKKLGHAYDQIKDFKKARAYFNYAIRLDPSDTIIRNRLEEYSKYFNYLGY	failed
